# Reference: patent US20150104448A1 (TRUE NORTH THERAPEUTICS, published 2015)
# Where a chain is given by its changes, count along the chain named.
# B1: VH1/Vk2 (antibody, V domains shown)
# VH: EVMLVESGGGLVKPGGSLRLSCAASGFTFSNYAMSWVRQAPGKGLEWVATISSGGSHTYYLDSVKGRFTISRDNSKDTLYLQMSSLRAEDTALYYCARLFTGYAMDYWGQGTSVTVSS
# VL: QIVLTQSPATLSLSPGERATMSCTASSSVSSSYLHWYQQKPGKAPKLWIYSTSNLASGVPSRFSGSGSGTDYTLTISSLQPEDFATYYCHQYYRLPPITFGQGTKLEIK
# notes: member of group m7; also called VH1/Vκ2; VH variant 1 + Vk variant 2
# B2: VH1/Vk1 (antibody, V domains shown)
# VH: B1 VH
# VL: B1 VL with T10I, D71F, P81A
# notes: member of group m7; also called VH1/Vκ1; VH variant 1 + Vk variant 1
# B3: VH1/Vk3 (antibody, V domains shown)
# VH: B1 VH
# VL: B1 VL with M21L
# notes: member of group m7; also called VH1/Vκ3; VH variant 1 + Vk variant 3
# B4: VH2/Vk1 (antibody, V domains shown)
# VH: B1 VH with S84N, S113L
# VL: B1 VL with T10I, D71F, P81A
# notes: member of group m7; also called VH2/Vκ1; VH variant 2 + Vk variant 1
# B5: VH2/Vk2 (antibody, V domains shown)
# VH: B1 VH with S84N, S113L
# VL: B1 VL
# notes: member of group m7; also called VH2/Vκ2; VH variant 2 + Vk variant 2
# B6: VH2/Vk3 (antibody, V domains shown)
# VH: B1 VH with S84N, S113L
# VL: B1 VL with M21L
# notes: member of group m7; also called VH2/Vκ3; VH variant 2 + Vk variant 3
# B7: VH3/Vk1 (antibody, V domains shown)
# VH: B1 VH
# VL: B1 VL with T10I, D71F, P81A
# notes: member of group m7; also called VH3/Vκ1; VH variant 3 + Vk variant 1
# B8: VH3/Vk3 (antibody, V domains shown)
# VH: B1 VH
# VL: B1 VL with M21L
# notes: member of group m7; also called VH3/Vκ3; VH variant 3 + Vk variant 3
# B9: VH4/Vk1 (antibody, V domains shown)
# VH: B1 VH with M3Q, D77N, S84N, S113L
# VL: B1 VL with T10I, D71F, P81A
# notes: member of group m7; also called VH4/Vκ1; VH variant 4 + Vk variant 1
# B10: VH4/Vk2 (antibody, V domains shown)
# VH: B1 VH with M3Q, D77N, S84N, S113L
# VL: B1 VL
# notes: member of group m7; also called VH4/Vκ2; VH variant 4 + Vk variant 2
# B11: VH4/Vk3 (antibody, V domains shown)
# VH: B1 VH with M3Q, D77N, S84N, S113L
# VL: B1 VL with M21L
# notes: member of group m7; also called VH4/Vκ3; VH variant 4 + Vk variant 3
# B12: VH3/Vk2 (antibody, V domains shown)
# VH: B1 VH
# VL: B1 VL
# notes: member of group m7; also called VH3/Vκ2; VH variant 3 + Vk variant 2
# What was measured:
# Inactive-C1s = target: T1, Inactive-C1s (Homo sapiens, UniProt P09871); assay: kinetic binding measurement, method not stated; Table 10, pro-C1s
# T1 construct: proenzyme (pro-C1s); also called pro-C1s
# T1 sequence (single chain, looked up): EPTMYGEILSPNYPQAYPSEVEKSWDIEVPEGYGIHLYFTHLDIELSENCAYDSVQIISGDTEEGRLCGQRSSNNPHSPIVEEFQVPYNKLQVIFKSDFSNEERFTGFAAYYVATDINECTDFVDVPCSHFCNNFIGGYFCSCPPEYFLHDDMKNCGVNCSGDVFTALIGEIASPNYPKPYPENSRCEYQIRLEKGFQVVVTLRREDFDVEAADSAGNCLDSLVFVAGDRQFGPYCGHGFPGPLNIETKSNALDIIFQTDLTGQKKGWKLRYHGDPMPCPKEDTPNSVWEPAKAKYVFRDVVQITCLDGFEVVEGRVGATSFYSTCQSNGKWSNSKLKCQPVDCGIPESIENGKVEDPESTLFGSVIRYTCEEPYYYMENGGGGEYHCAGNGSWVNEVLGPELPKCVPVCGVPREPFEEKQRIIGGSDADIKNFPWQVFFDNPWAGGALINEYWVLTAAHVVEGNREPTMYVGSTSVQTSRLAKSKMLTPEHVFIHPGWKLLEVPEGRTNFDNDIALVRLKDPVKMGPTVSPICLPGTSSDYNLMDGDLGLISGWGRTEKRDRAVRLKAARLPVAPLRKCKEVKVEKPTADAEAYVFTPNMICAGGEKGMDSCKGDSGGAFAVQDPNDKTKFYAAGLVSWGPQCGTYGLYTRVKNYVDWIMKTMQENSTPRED
# [1] = target: T2, purified human activated C1s protein, two-chain form (Homo sapiens, UniProt P09871 16-688); assay: kinetic binding measurement, method not stated; Table 9, activated C1s
# T2 construct: Also used here for C1s acting in human serum assays; also called human C1s; active C1s
# T2 sequence: T1 sequence (single chain, looked up)
binder,measurement,setting,value
B1,Kd,Inactive-C1s,0.229 nM
same,koff,Inactive-C1s,0.000249 s⁻¹
same,kon,Inactive-C1s,1.09e+06 M⁻¹ s⁻¹
same,Kd,[1],0.262 nM
same,koff,[1],0.000274 s⁻¹
same,kon,[1],1.05e+06 M⁻¹ s⁻¹
B2,Kd,Inactive-C1s,0.191 nM
same,koff,Inactive-C1s,0.000198 s⁻¹
same,kon,Inactive-C1s,1.04e+06 M⁻¹ s⁻¹
same,Kd,[1],0.235 nM
same,koff,[1],0.000228 s⁻¹
same,kon,[1],973000 M⁻¹ s⁻¹
B3,Kd,Inactive-C1s,0.303 nM
same,koff,Inactive-C1s,0.000285 s⁻¹
same,kon,Inactive-C1s,941000 M⁻¹ s⁻¹
same,Kd,[1],0.376 nM
same,koff,[1],0.000343 s⁻¹
same,kon,[1],914000 M⁻¹ s⁻¹
B4,Kd,Inactive-C1s,0.252 nM
same,koff,Inactive-C1s,0.000262 s⁻¹
same,kon,Inactive-C1s,1.04e+06 M⁻¹ s⁻¹
same,Kd,[1],0.256 nM
same,koff,[1],0.000274 s⁻¹
same,kon,[1],1.07e+06 M⁻¹ s⁻¹
B5,Kd,Inactive-C1s,0.271 nM
same,koff,Inactive-C1s,0.000269 s⁻¹
same,kon,Inactive-C1s,993000 M⁻¹ s⁻¹
same,Kd,[1],0.273 nM
same,koff,[1],0.00028 s⁻¹
same,kon,[1],1.03e+06 M⁻¹ s⁻¹
B6,Kd,Inactive-C1s,0.284 nM
same,koff,Inactive-C1s,0.000275 s⁻¹
same,kon,Inactive-C1s,968000 M⁻¹ s⁻¹
same,Kd,[1],0.296 nM
same,koff,[1],0.000281 s⁻¹
same,kon,[1],948000 M⁻¹ s⁻¹
B7,Kd,Inactive-C1s,0.252 nM
same,koff,Inactive-C1s,0.000255 s⁻¹
same,kon,Inactive-C1s,1.02e+06 M⁻¹ s⁻¹
same,Kd,[1],0.246 nM
same,koff,[1],0.000254 s⁻¹
same,kon,[1],1.03e+06 M⁻¹ s⁻¹
B8,Kd,Inactive-C1s,0.331 nM
same,koff,Inactive-C1s,0.000351 s⁻¹
same,kon,Inactive-C1s,1.06e+06 M⁻¹ s⁻¹
same,Kd,[1],0.335 nM
same,koff,[1],0.00036 s⁻¹
same,kon,[1],1.08e+06 M⁻¹ s⁻¹
B9,Kd,Inactive-C1s,0.291 nM
same,koff,Inactive-C1s,0.000319 s⁻¹
same,kon,Inactive-C1s,1.1e+06 M⁻¹ s⁻¹
same,Kd,[1],0.228 nM
same,koff,[1],0.000271 s⁻¹
same,kon,[1],1.19e+06 M⁻¹ s⁻¹
B10,Kd,Inactive-C1s,0.262 nM
same,koff,Inactive-C1s,0.000263 s⁻¹
same,kon,Inactive-C1s,1.01e+06 M⁻¹ s⁻¹
same,Kd,[1],0.262 nM
same,koff,[1],0.000264 s⁻¹
same,kon,[1],1e+06 M⁻¹ s⁻¹
B11,Kd,Inactive-C1s,0.278 nM
same,koff,Inactive-C1s,0.000306 s⁻¹
same,kon,Inactive-C1s,1.1e+06 M⁻¹ s⁻¹
same,Kd,[1],0.298 nM
same,koff,[1],0.00031 s⁻¹
same,kon,[1],1.04e+06 M⁻¹ s⁻¹
B12,Kd,Inactive-C1s,0.291 nM
same,koff,Inactive-C1s,0.000315 s⁻¹
same,kon,Inactive-C1s,1.08e+06 M⁻¹ s⁻¹
same,Kd,[1],0.274 nM
same,koff,[1],0.000311 s⁻¹
same,kon,[1],1.13e+06 M⁻¹ s⁻¹
